Measurements taken from article PMC2118540.
Read-outs that look alike come from different tables or passages of the source.

Columns and labels:
Experiment in all cases: FRET or BRET
[1] = target: HLA-A, B, C (human (endogenous in KU812))
[2] = target: H-2K^b/D^b (mouse (endogenous in BMMCs))
[3] = target: H-2K^b/D^b (mouse (endogenous in BMMCs)); remark: listed apart in the source

Row | Molecule | FRET efficiency (%) [1] [%] | also measured
1 | β2-microglobulin (β2m), human (from UniProt P61769 21-119) (natural protein) | 14.5 | –
2 | leukocyte immunoglobulin (Ig)-like receptor (LILR) B2 (from UniProt Q8N423 22-597) | 20.7 | –
3 | β2-microglobulin (β2m), mouse (from UniProt P01887 21-119) (natural protein) | – | FRET efficiency (%) [2]: 8%
4 | paired Ig-like receptor (PIR)–B (receptor, tyrosine-phosphorylated, constitutively and after IgE stimulation (residues not given)) SLPKPILRVQPDSVVSRRTKVTFLCEETIGANEYRLYKDGKLYKTVTKNKQKPENKAEFSFSNVDLSNAGQYRCSYSTQYKSSGYSDLLELVVTGHYWTPSLLAQASPVVTSGGYVTLQCESWHNDHKFILTVEGPQKLSWTQDSQYNYSTRKYHALFSVGPVTPNQRWICRCYSYDRNRPYVWSPPSESVELLVSGNLQKPTIKAEPGSVITSKRAMTIWCQGNLDAEVYFLHNEKSQKTQSTQTLQEPGNKGKFFIPSVTLQHAGQYRCYCYGSAGWSQPSDTLELVVTGIYEYYEPRLSVLPSPVVTAGGNMTLHCASDFPYDKFILTKEDKKFGNSLDTEHISSSGQYRALFIIGPTTPTHTGAFRCYGYYKNAPQLWSVPSALQQILISGLSKKPSLLTHQGHILDPGMTLTLQCFSDINYDRFALHKVGGADIMQHSSQQTDTGFSVANFTLGYVSSSTGGQYRCYGAHNLSSEWSASSEPLDILITGQLPLTPSLSVQPNHTVHSGETVSLLCWSMDSVDTFILSKEGSAQQPLRLKSKSHDQQSQAEFSMSAVTSHLSGTYRCYGAQDSSFYLLSSASAPVELTVSGPIETSTPPPTMSMPLGGLHMYLKALIGVSVAFILFLFIFIFILLRRRHRGKFRKDVQKEKDLQLSSGAEEPITRKGELQKRPNPAAATQEESLYASVEDMQTEDGVELNSWTPPEEDPQGETYAQVKPSRLRKAGHVSPSVMSREQLNTEYEQAEEGQGANNQAAESGESQDVTYAQLCSRTLRQGAAASPLSQAGEAPEEPSVYATLAAARPEAVPKDMEQ | – | FRET efficiency (%) [3]: 13.5%
